For the test, the target named is T1, His-tagged p53 protein (UniProt P04637 1-393).
T1 construct: tumor suppressor p53, cloned into pET28b+; also called His-p53; source: bacteria (pET28b+), purified (Ni(II)-Sepharose)
As to the kind of experiment: pull-down; GST or GST fusion proteins on glutathione-Sepharose 4B beads incubated with purified His-tagged proteins in TEN buffer (10 mM Tris-HCl, pH 8.0, 1 mM EDTA, 100 mM NaCl), 4 h, 4 °C; blot with anti-His or anti-GST, Coomassie staining. As to conditions: both partners purified.

T1 sequence (P04637 whole entry): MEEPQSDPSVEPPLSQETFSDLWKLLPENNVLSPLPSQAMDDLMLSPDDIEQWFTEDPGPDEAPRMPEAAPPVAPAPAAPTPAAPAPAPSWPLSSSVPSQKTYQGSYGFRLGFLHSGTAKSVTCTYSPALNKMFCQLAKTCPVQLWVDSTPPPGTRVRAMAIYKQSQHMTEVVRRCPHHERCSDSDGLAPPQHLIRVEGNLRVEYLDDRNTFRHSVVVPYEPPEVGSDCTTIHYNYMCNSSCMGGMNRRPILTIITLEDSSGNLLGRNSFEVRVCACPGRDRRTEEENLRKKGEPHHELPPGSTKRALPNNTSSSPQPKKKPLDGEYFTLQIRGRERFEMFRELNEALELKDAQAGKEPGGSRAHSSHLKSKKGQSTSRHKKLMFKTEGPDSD

B1: GST-SIRT6 core domain, 35–276 aa (domain or fragment, UniProt Q8N6T7 35-276, looked up)
chain: WELARLVWQSSSVVFHTGAGISTASGIPDFRGPHGVWTMEERGLAPKFDTTFESARPTQTHMALVQLERVGLLRFLVSQNVDGLHVRSGFPRDKLAELHGNMFVEECAKCKTQYVRDTVVGTMGLKATGRLCTVAKARGLRACRGELRDTILDWEDSLPDRDLALADEASRNADLSITLGTSLQIRPSGNLPLATKRRGGRLVIVNLQPTKHDRHADLRIHGYVDEVMTRLMKHLGLEIPAW
notes: source: bacteria, purified (glutathione-Sepharose 4B)
Take B1: the binding result is given as “binds”.
